In one experiment the target is CD40 (UniProt P25942 21-193, limits assumed). Nature of the experiment: FCM or ELISA, graded. Background: An ELISA detects its analyte on a solid surface through an enzyme-linked reagent.
A further experiment has as its target PD-L1 (binding assay) (UniProt Q9NZQ7 19-238, limits assumed). Briefly: FCM or ELISA, graded.
A further experiment deals with T1, PD-L1 (human, UniProt Q9NZQ7 19-238, limits assumed).
T1 construct: In the reporter assay it is on Raji cells expressing human PD-L1
Nature of the experiment: PD-L1 binding, FCM or ELISA.

CD40, sequence (P25942 21-193 limits assumed): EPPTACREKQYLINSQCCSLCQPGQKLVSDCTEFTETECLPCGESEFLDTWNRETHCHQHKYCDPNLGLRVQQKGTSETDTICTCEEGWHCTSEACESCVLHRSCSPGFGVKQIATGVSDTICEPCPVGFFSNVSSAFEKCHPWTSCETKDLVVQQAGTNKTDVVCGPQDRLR
PD-L1 (binding assay), sequence (Q9NZQ7 19-238 limits assumed): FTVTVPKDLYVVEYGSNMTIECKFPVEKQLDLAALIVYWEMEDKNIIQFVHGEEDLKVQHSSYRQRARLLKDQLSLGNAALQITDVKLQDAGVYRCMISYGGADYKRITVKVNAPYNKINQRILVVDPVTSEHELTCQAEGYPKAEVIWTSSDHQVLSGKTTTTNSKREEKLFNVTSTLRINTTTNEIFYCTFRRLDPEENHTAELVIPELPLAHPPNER
T1 sequence (Q9NZQ7 19-238 limits assumed): as above

B1: Ly2438 (bispecific antibody)
heavy 1: QVQLVQSGAEVKKPGASVKVSCKASGYTFTDFWMSWVRQAPGQGLEWMGQIYPNTGTTHSNEKFKGRVTMTRDTSTSTVYMELSSLRSEDTAVYYCARSYHISTTPNWFAYWGQGTLVTVSSASTKGPSVFPLAPSSKSTSGGTAALGCLVKDYFPEPVTVSWNSGALTSGVHTFPAVLQSSGLYSLSSVVTVPSSSLGTQTYICNVNHKPSNTKVDKKVEPKSCGGGGSGGGGSGGGGSGGGGSEVQLVESGGGLVQPGGSLRLSCAASGFTFTNYGLHWVRQAPGKGLEWVSSISPSGGVTYYRDSVKGRFTISRDNSKNTLYLQMNSLRAEDTAVYYCAKPFLGWGGANWIAHWGQGTLVTVSSGGGGSDKTHTCPPCPAPEAAGPSVFLFPPKPKDTLMISRTPEVTCVVVDVSHEDPEVKFNWYVDGVEVHNAKTKPREEQYNSTYRVVSVLTVLHQDWLNGKEYKCKVSNKALPAPIEKTISKAKGQPREPQVYTLPPSREEMTKNQVSLWCLVKGFYPSDIAVEWESNGQPENNYKTTPPVLDSDGSFFLYSKLTVDKSRWQQGNVFSCSVMHEALHNHYTQKSLSLSPG
heavy 2: QVQLVQSGAEVKKPGASVKVSCKASGYTFTDFWMSWVRQAPGQGLEWMGQIYPNTGTTHSNEKFKGRVTMTRDTSTSTVYMELSSLRSEDTAVYYCARSYHISTTPNWFAYWGQGTLVTVSSASTKGPSVFPLAPSSKSTSGGTAALGCLVKDYFPEPVTVSWNSGALTSGVHTFPAVLQSSGLYSLSSVVTVPSSSLGTQTYICNVNHKPSNTKVDKKVEPKSCGGGGSGGGGSGGGGSGGGGSDIQMTQSPSSLSASVGDRVTITCLASEDISNDLAWYQQKPGKAPKLLIYFVDRLLDGVPSRFSGSGSGTDFTLTISSLQPEDFATYYCQQSYKYPPTFGQGTKLEIKGGGGSDKTHTCPPCPAPEAAGPSVFLFPPKPKDTLMISRTPEVTCVVVDVSHEDPEVKFNWYVDGVEVHNAKTKPREEQYNSTYRVVSVLTVLHQDWLNGKEYKCKVSNKALPAPIEKTISKAKGQPREPQVYTLPPSREEMTKNQVSLSCAVKGFYPSDIAVEWESNGQPENNYKTTPPVLDSDGSFFLVSKLTVDKSRWQQGNVFSCSVMHEALHNRFTQKSLSLSPG
light: DIQMTQSPSSLSASVGDRVTITCKASQNVYKKLEWYQQKPGKVPKVLIYHTNILQTGVPSRFSGSGSGTDYTLTISSLQPEDVATYYCYQWNSGPTFGGGTKVEIKRTVAAPSVFIFPPSDEQLKSGTASVVCLLNNFYPREAKVQWKVDNALQSGNSQESVTEQDSKDSTYSLSSTLTLSKADYEKHKVYACEVTHQGLSSPVTKSFNRGEC
notes: PD-L1 Fabs (Ly076) x central CD40 Fv (TM559)
Turning to B1, the binding result with CD40 and in the experiment with PD-L1 (binding assay) was “binds” each time.

B2: Ly2444 (bispecific antibody, human IgG1, kappa)
heavy 1: QVQLVQSGAEVKKPGASVKVSCKASGYTFTDFWMSWVRQAPGQGLEWMGQIYPNTGTTHSNEKFKGRVTMTRDTSTSTVYMELSSLRSEDTAVYYCARSYHISTTPNWFAYWGQGTLVTVSSASTKGPSVFPLAPSSKSTSGGTAALGCLVKDYFPEPVTVSWNSGALTSGVHTFPAVLQSSGLYSLSSVVTVPSSSLGTQTYICNVNHKPSNTKVDKKVEPKSCDKTHTCPPCPAPEAAGPSVFLFPPKPKDTLMISRTPEVTCVVVDVSHEDPEVKFNWYVDGVEVHNAKTKPREEQYNSTYRVVSVLTVLHQDWLNGKEYKCKVSNKALPAPIEKTISKAKGQPREPQVYTLPPSREEMTKNQVSLWCLVKGFYPSDIAVEWESNGQPENNYKTTPPVLDSDGSFFLYSKLTVDKSRWQQGNVFSCSVMHEALHNHYTQKSLSLSPGGGGGSGGGGSGGGGSGGGGSEVQLVESGGGLVQPGGSLRLSCAASGFTFTNYGLHWVRQAPGKGLEWVSSISPSGGVTYYRDSVKGRFTISRDNSKNTLYLQMNSLRAEDTAVYYCAKPFLGWGGANWIAHWGQGTLVTVSS
heavy 2: QVQLVQSGAEVKKPGASVKVSCKASGYTFTDFWMSWVRQAPGQGLEWMGQIYPNTGTTHSNEKFKGRVTMTRDTSTSTVYMELSSLRSEDTAVYYCARSYHISTTPNWFAYWGQGTLVTVSSASTKGPSVFPLAPSSKSTSGGTAALGCLVKDYFPEPVTVSWNSGALTSGVHTFPAVLQSSGLYSLSSVVTVPSSSLGTQTYICNVNHKPSNTKVDKKVEPKSCDKTHTCPPCPAPEAAGPSVFLFPPKPKDTLMISRTPEVTCVVVDVSHEDPEVKFNWYVDGVEVHNAKTKPREEQYNSTYRVVSVLTVLHQDWLNGKEYKCKVSNKALPAPIEKTISKAKGQPREPQVYTLPPSREEMTKNQVSLSCAVKGFYPSDIAVEWESNGQPENNYKTTPPVLDSDGSFFLVSKLTVDKSRWQQGNVFSCSVMHEALHNRFTQKSLSLSPGGGGGSGGGGSGGGGSGGGGSDIQMTQSPSSLSASVGDRVTITCLASEDISNDLAWYQQKPGKAPKLLIYFVDRLLDGVPSRFSGSGSGTDFTLTISSLQPEDFATYYCQQSYKYPPTFGQGTKLEIK
light: DIQMTQSPSSLSASVGDRVTITCKASQNVYKKLEWYQQKPGKVPKVLIYHTNILQTGVPSRFSGSGSGTDYTLTISSLQPEDVATYYCYQWNSGPTFGGGTKVEIKRTVAAPSVFIFPPSDEQLKSGTASVVCLLNNFYPREAKVQWKVDNALQSGNSQESVTEQDSKDSTYSLSSTLTLSKADYEKHKVYACEVTHQGLSSPVTKSFNRGEC
notes: PD-L1 Fabs (Ly076) x terminal CD40 Fv (TM559)
For the molecule B2, the binding result with CD40 and in the experiment with PD-L1 (binding assay) was “binds” throughout.

B3: Ly076 (antibody, V domains shown)
VH: QVQLVQSGAEVKKPGASVKVSCKASGYTFTDFWMSWVRQAPGQGLEWMGQIYPNTGTTHSNEKFKGRVTMTRDTSTSTVYMELSSLRSEDTAVYYCARSYHISTTPNWFAYWGQGTLVTVSS
VL: DIQMTQSPSSLSASVGDRVTITCKASQNVYKKLEWYQQKPGKVPKVLIYHTNILQTGVPSRFSGSGSGTDYTLTISSLQPEDVATYYCYQWNSGPTFGGGTKVEIK
notes: Parent mAb; also called Anti-PD-L1 Ly076; parent anti-PD-L1 antibody
Regarding B3, in the experiment with PD-L1, the binding result was “binds”.

Values taken from US20250388669A1 (published 2025).
